According to patent US20030224390A1, “Method of identifying conformation-sensitive binding peptides and uses thereof” (Karo Bio AB, priority 2000, published 2003):

Columns and labels:
ER α = target: T1, ER α (Homo sapiens, UniProt P03372); test: Phage ELISA fingerprint: peptide binding to immobilized ER α with modulator present (Table 14A); settings: ICI 182,780 (1 μM)
T1 sequence (P03372 1-595): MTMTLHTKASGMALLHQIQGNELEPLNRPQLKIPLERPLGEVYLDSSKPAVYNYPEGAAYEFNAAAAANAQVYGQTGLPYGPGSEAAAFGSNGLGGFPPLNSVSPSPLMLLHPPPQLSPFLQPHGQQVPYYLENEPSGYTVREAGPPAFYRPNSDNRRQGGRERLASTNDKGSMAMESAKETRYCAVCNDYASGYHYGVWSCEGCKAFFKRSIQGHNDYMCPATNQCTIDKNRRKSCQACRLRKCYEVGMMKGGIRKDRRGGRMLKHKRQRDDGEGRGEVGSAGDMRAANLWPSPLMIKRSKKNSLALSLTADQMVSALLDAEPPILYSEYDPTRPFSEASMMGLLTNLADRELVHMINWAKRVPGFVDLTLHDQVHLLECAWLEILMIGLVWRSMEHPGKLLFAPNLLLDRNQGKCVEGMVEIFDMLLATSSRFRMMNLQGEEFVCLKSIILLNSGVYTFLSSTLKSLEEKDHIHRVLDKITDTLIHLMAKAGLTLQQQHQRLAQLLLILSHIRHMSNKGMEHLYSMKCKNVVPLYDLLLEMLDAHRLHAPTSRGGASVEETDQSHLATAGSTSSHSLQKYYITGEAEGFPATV

ERβ = ERβ (Homo sapiens, UniProt Q92731); test: Phage ELISA fingerprint: peptide binding to immobilized ER β with modulator present (Table 14B); settings: nafoxidine (10 μM)
Sequence of ERβ (Q92731 whole entry, species assumed): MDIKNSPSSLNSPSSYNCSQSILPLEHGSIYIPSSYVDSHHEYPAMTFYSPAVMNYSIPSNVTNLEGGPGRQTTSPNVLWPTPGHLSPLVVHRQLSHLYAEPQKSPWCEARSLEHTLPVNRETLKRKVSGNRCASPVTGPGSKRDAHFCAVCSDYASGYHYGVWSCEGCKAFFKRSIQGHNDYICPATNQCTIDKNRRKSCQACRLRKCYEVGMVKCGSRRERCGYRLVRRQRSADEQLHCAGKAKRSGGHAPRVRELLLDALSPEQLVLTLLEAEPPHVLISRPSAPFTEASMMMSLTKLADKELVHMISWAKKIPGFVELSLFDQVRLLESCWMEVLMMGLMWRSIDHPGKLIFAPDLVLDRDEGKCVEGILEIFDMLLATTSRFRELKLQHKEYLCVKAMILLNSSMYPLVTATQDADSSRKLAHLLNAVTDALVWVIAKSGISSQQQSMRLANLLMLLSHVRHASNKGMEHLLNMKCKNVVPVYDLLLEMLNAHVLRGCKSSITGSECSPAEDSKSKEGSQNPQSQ

In the case of SRLPPSVFSMCGSEVCLSR [9Tβ], the “Class Specific Fingerprint on ERα: peptide binding, ICI 182,780 present” value (ER α) is reported as 0 and the “Class Specific Fingerprint on ERβ: peptide binding, Nafoxidine present” value (ERβ) is reported as 5.
